Results reported in patent US20100216187A1 (published 2010).

Biological target: T1, human serum albumin (human, UniProt P02768 25-609)
T1 construct: Bought serum albumin; also called HSA; antigen
Experiment: SPR (Biacore), ratio of the off rates at the two pH

Binder | Ratio pH 7/pH 5 (of kd)
Nanobody 4D4 (VHH) VHH: EVQLVESGGGLVQAGDSLRLSCAASGRTFSPYVMGWFRRAPGKEREFVGGINWSGSNTWYTDSVKGRFTISRDNVKNMVYLQMNSLKPEDTAVYYCAAGSGVGMYRYERQYDYWGQGTQVTVSS | 2.76
Nanobody 4B1 (VHH) VHH: EVQLVESGGGLVQPGGSLRLSCVAAGFTLDYYAIGWFRQAPGKEREGVSCITSDGRTYYADSVKGRFTISRDMAKKMVYLQMNSLKPEDTAVYYCAAGACMGGSGYEADFGSWGQGTQVTVSS | 0.88
Nanobody 4A6 (VHH) VHH: EVQLVESGGGLVQPGGSLRLSCAASPFTLDYYAIGWFRQAPGKEREGVSCSTSHGKTYHADSVKGRFTISRDNAKNTVYLQMNSLKPEDTAVYYCAAGACMGGSGYEADFGSWGQGTQVTVSS | 5.77
Nanobody 4C3 (VHH) VHH: EVQLVESGGGLVQAGGSLRLSCAASGRTFSSYAMAWFRQAPGEEREFVATISVSGGYTYYADSVKGRFTISRDNAKNTVYLQMNTLKPEDTAVYYCAAGDSSSWLEHMYDYWGQGTQVTVSS | 3.35
Nanobody 4C5 (VHH) VHH: EVQLVESGGGLVQAGDSLRLSCAASGRPFSAYVMGWFRRAPGKEREFVGGINWNSANTWYTDSVLGRFTISKDNAKNTVYLQMNSLKPEDTAVYYCAAAGGVGYYRYERQYDYWGQGTQVTVSS | 2.44
Nanobody 4D7 (VHH) VHH: EVQLVESGGGLVQAGDSLRLSCAASGRPFSSYVMGWFRRAPGKEREFVGGINWNSGNTWYSDSVLGRFTISRDNAKNTVDLQMNSLKPEDTAVYYCATASGVGYYRYERQYDYWGQGTQVTVSS | 2.42
Nanobody 4C4 (VHH) VHH: EVQLVESGGGLVQAGDSLRLSCAASGRPFMSYVMGWFRRAPGKEREFVGGINWGSGNTWYTDSVLGRFTISRDNAKNTVYLQMNSLKPEDTAVYYCATAAGVGYYRYERQYDYWGQGTQVTVSS | 2.42
Nanobody 4B6 (VHH) VHH: KVQLVESGGGLVQVGGSLRLSCVASGRTYGGNAMAWFRQAPGKEREFVAGIDWSSENTRYTDSVKGRFTISRDNAKNTMYLQMNSLKPEDTAVYYCAAGTSWGALASRLENAYSAWGQGTQVTVSS | 3.23
Nanobody 4B8 (VHH) VHH: EVQLVESGGGLVQAGGSLRLSCAASGGTYSGNAMAWFRQAPGKEREFVAGIDWSSENTRYIDSVKGRFTISRDNAKNTMYLQMNSLKPEDTAVYYCAAGTSWGALASRLEAAYSSWGQGTQVTVSS | 2.43
Nanobody 4B5 (VHH) VHH: EVQLVESGGGLVQAGDSLRLSCAASGRTYSRNAMAWFRQAPGKEREFVAGIDWSSENTRYIDSVKGRFTISRDNAKSTMYLQMNSLKPEDTAVYYCAAGTSWGALASRLEAAYSSWGQGTQVTVSS | 2.32
Nanobody 4C8 (VHH) VHH: EVQLVESGGGLVQAGDSLRLSCAASGRTYTPYVMGWFRRAPGKEREFVGAVSWSGTNTWYTDSVKGRFTISRDNAKNTVYLQMNSLKPEDTAVYYCAAGDGVGIYRYEHQYDYWGQGTQVTVSS | 3.35
Nanobody 4C9 (VHH) VHH: EVQLVESGGGLVQAGDSLRLSCTASERPFSTYVMGWFRRAPGKEREFVGGITWSGINAWYTDSVLGRFTISSDNAKNTVYLQMNSLKPEDTAVYYCAAASGVGRYRYELQYDYWGQGTQVTVSS | 3.88
Nanobody 4A9 (VHH) VHH: EVQLVESGGGLVQAGGSLRLSCEASGFTLDYSGVGWFRQAPGKERELVSCISRGGDRAGYANSVKGRFTMSRDNAKNILYLQMNSLKPEDTAVYYCAATHSGSGCYDGAIDYWGKGTLVTVSS | 0.54
Nanobody 4D10 (VHH) VHH: EVQLVESGGGLVQAGDSLRLSCTASERPFMSYVMGWFRRAPGKDREFVGAITWSGINTWYSDSVLGRFTISRDNAKNTVYLQMNSLKPEDTAVYYCAVADGVGLYRYERQYDYWGQGTQVTVSS | 6.52
Nanobody 4B10 (VHH) VHH: EVQLVESGGGLVQAGDSLRLSCAASGRTFSSYAMGWFRQAPGTERQFVARITGKGDSTDYADSVRGRFTISRDNAKNTVYLQMNSLKPEDTAVYYCAADAFNSLLQAGRAEYWGQGTQVTVSS | 0.87
Nanobody 4D5 (VHH) VHH: EVQLVESGGGLVQAGGSLRLSCAASGLSFSKYAMGWFRQAPGKQREYVAVISSSDTTYYTNSAKGRFTISRDNAENTVYLQMNSLKPEDTAVYFCAADSYVTALQTLTQISYWGQGTQVTVSS | 1.29
Nanobody 4C11 (VHH) VHH: EVQLVESGGGLVQAGGSLRLSCAASGLSFSRYAMGWFRQAPGKQREYVAVISSSDTTYYTNSAKGRFTISRDNAENTVYLQMNSLKPEDTAVYFCAADSFVTALQTLTQINYWGQGTQVTVSS | 1.19
